First the molecules themselves.
B1: Analog 36 (peptide)
peptide: AEST[2Nal]HHLSLGYMYTLN-NH2
modifications: N-terminus assumed
SMILES: CSCC[C@H](NC(=O)[C@H](Cc1ccc(O)cc1)NC(=O)CNC(=O)[C@H](CC(C)C)NC(=O)[C@H](CO)NC(=O)[C@H](CC(C)C)NC(=O)[C@H](Cc1c[nH]cn1)NC(=O)[C@H](Cc1c[nH]cn1)NC(=O)[C@H](Cc1ccc2ccccc2c1)NC(=O)[C@@H](NC(=O)[C@H](CO)NC(=O)[C@H](CCC(=O)O)NC(=O)[C@H](C)N)[C@@H](C)O)C(=O)N[C@@H](Cc1ccc(O)cc1)C(=O)N[C@H](C(=O)N[C@@H](CC(C)C)C(=O)N[C@@H](CC(N)=O)C(N)=O)[C@@H](C)O
B2: Peptide 25 (synthetic peptide of clone 25) (peptide)
peptide: AESTYHHLSLGYMYTLN-NH2
notes: also called clone 25 peptide; analogs 3 and 4
B3: Analog 34 (peptide)
peptide: AESTFHHLSLGYMYTLN-NH2
B4: Analog 43 (peptide)
peptide: AESTYHHLSLGYVYTLN-NH2
B5: Analog 47 (peptide)
peptide: A[dE]STYHHLSLGYMYTLN-NH2
modifications: N-terminus assumed
SMILES: CSCC[C@H](NC(=O)[C@H](Cc1ccc(O)cc1)NC(=O)CNC(=O)[C@H](CC(C)C)NC(=O)[C@H](CO)NC(=O)[C@H](CC(C)C)NC(=O)[C@H](Cc1c[nH]cn1)NC(=O)[C@H](Cc1c[nH]cn1)NC(=O)[C@H](Cc1ccc(O)cc1)NC(=O)[C@@H](NC(=O)[C@H](CO)NC(=O)[C@@H](CCC(=O)O)NC(=O)[C@H](C)N)[C@@H](C)O)C(=O)N[C@@H](Cc1ccc(O)cc1)C(=O)N[C@H](C(=O)N[C@@H](CC(C)C)C(=O)N[C@@H](CC(N)=O)C(N)=O)[C@@H](C)O
B6: Analog 60 (peptide)
peptide: AESTYHHLSLGYMYT[dL]N-NH2
modifications: N-terminus assumed
SMILES: CSCC[C@H](NC(=O)[C@H](Cc1ccc(O)cc1)NC(=O)CNC(=O)[C@H](CC(C)C)NC(=O)[C@H](CO)NC(=O)[C@H](CC(C)C)NC(=O)[C@H](Cc1c[nH]cn1)NC(=O)[C@H](Cc1c[nH]cn1)NC(=O)[C@H](Cc1ccc(O)cc1)NC(=O)[C@@H](NC(=O)[C@H](CO)NC(=O)[C@H](CCC(=O)O)NC(=O)[C@H](C)N)[C@@H](C)O)C(=O)N[C@@H](Cc1ccc(O)cc1)C(=O)N[C@H](C(=O)N[C@H](CC(C)C)C(=O)N[C@@H](CC(N)=O)C(N)=O)[C@@H](C)O
B7: Analog 45 (peptide)
peptide: AESTYHHLSLGY[Abu]YTLN-NH2
modifications: N-terminus assumed
SMILES: CC[C@H](NC(=O)[C@H](Cc1ccc(O)cc1)NC(=O)CNC(=O)[C@H](CC(C)C)NC(=O)[C@H](CO)NC(=O)[C@H](CC(C)C)NC(=O)[C@H](Cc1c[nH]cn1)NC(=O)[C@H](Cc1c[nH]cn1)NC(=O)[C@H](Cc1ccc(O)cc1)NC(=O)[C@@H](NC(=O)[C@H](CO)NC(=O)[C@H](CCC(=O)O)NC(=O)[C@H](C)N)[C@@H](C)O)C(=O)N[C@@H](Cc1ccc(O)cc1)C(=O)N[C@H](C(=O)N[C@@H](CC(C)C)C(=O)N[C@@H](CC(N)=O)C(N)=O)[C@@H](C)O
notes: T0004 prints Y there, as in peptide 25; Y is used
B8: Analog 55 (peptide)
peptide: AESTYHHLS[dL]GYMYTLN-NH2
modifications: N-terminus assumed
SMILES: CSCC[C@H](NC(=O)[C@H](Cc1ccc(O)cc1)NC(=O)CNC(=O)[C@@H](CC(C)C)NC(=O)[C@H](CO)NC(=O)[C@H](CC(C)C)NC(=O)[C@H](Cc1c[nH]cn1)NC(=O)[C@H](Cc1c[nH]cn1)NC(=O)[C@H](Cc1ccc(O)cc1)NC(=O)[C@@H](NC(=O)[C@H](CO)NC(=O)[C@H](CCC(=O)O)NC(=O)[C@H](C)N)[C@@H](C)O)C(=O)N[C@@H](Cc1ccc(O)cc1)C(=O)N[C@H](C(=O)N[C@@H](CC(C)C)C(=O)N[C@@H](CC(N)=O)C(N)=O)[C@@H](C)O
B9: Analog 44 (peptide)
peptide: AESTYHHLSLGY[Nle]YTLN-NH2
modifications: N-terminus assumed
SMILES: CCCC[C@H](NC(=O)[C@H](Cc1ccc(O)cc1)NC(=O)CNC(=O)[C@H](CC(C)C)NC(=O)[C@H](CO)NC(=O)[C@H](CC(C)C)NC(=O)[C@H](Cc1c[nH]cn1)NC(=O)[C@H](Cc1c[nH]cn1)NC(=O)[C@H](Cc1ccc(O)cc1)NC(=O)[C@@H](NC(=O)[C@H](CO)NC(=O)[C@H](CCC(=O)O)NC(=O)[C@H](C)N)[C@@H](C)O)C(=O)N[C@@H](Cc1ccc(O)cc1)C(=O)N[C@H](C(=O)N[C@@H](CC(C)C)C(=O)N[C@@H](CC(N)=O)C(N)=O)[C@@H](C)O
B10: Analog 35 (peptide)
peptide: AEST[1Nal]HHLSLGYMYTLN-NH2
modifications: N-terminus assumed
SMILES: CSCC[C@H](NC(=O)[C@H](Cc1ccc(O)cc1)NC(=O)CNC(=O)[C@H](CC(C)C)NC(=O)[C@H](CO)NC(=O)[C@H](CC(C)C)NC(=O)[C@H](Cc1c[nH]cn1)NC(=O)[C@H](Cc1c[nH]cn1)NC(=O)[C@H](Cc1cccc2ccccc12)NC(=O)[C@@H](NC(=O)[C@H](CO)NC(=O)[C@H](CCC(=O)O)NC(=O)[C@H](C)N)[C@@H](C)O)C(=O)N[C@@H](Cc1ccc(O)cc1)C(=O)N[C@H](C(=O)N[C@@H](CC(C)C)C(=O)N[C@@H](CC(N)=O)C(N)=O)[C@@H](C)O
B11: Analog 61 (peptide)
peptide: AESTYHHLSLGYMYTL[dN]-NH2
modifications: N-terminus assumed
SMILES: CSCC[C@H](NC(=O)[C@H](Cc1ccc(O)cc1)NC(=O)CNC(=O)[C@H](CC(C)C)NC(=O)[C@H](CO)NC(=O)[C@H](CC(C)C)NC(=O)[C@H](Cc1c[nH]cn1)NC(=O)[C@H](Cc1c[nH]cn1)NC(=O)[C@H](Cc1ccc(O)cc1)NC(=O)[C@@H](NC(=O)[C@H](CO)NC(=O)[C@H](CCC(=O)O)NC(=O)[C@H](C)N)[C@@H](C)O)C(=O)N[C@@H](Cc1ccc(O)cc1)C(=O)N[C@H](C(=O)N[C@@H](CC(C)C)C(=O)N[C@H](CC(N)=O)C(N)=O)[C@@H](C)O
B12: Analog 46 (peptide)
peptide: [dA]ESTYHHLSLGYMYTLN-NH2
modifications: N-terminus assumed
SMILES: CSCC[C@H](NC(=O)[C@H](Cc1ccc(O)cc1)NC(=O)CNC(=O)[C@H](CC(C)C)NC(=O)[C@H](CO)NC(=O)[C@H](CC(C)C)NC(=O)[C@H](Cc1c[nH]cn1)NC(=O)[C@H](Cc1c[nH]cn1)NC(=O)[C@H](Cc1ccc(O)cc1)NC(=O)[C@@H](NC(=O)[C@H](CO)NC(=O)[C@H](CCC(=O)O)NC(=O)[C@@H](C)N)[C@@H](C)O)C(=O)N[C@@H](Cc1ccc(O)cc1)C(=O)N[C@H](C(=O)N[C@@H](CC(C)C)C(=O)N[C@@H](CC(N)=O)C(N)=O)[C@@H](C)O
B13: Analog 54 (peptide)
peptide: AESTYHHL[dS]LGYMYTLN-NH2
modifications: N-terminus assumed
SMILES: CSCC[C@H](NC(=O)[C@H](Cc1ccc(O)cc1)NC(=O)CNC(=O)[C@H](CC(C)C)NC(=O)[C@@H](CO)NC(=O)[C@H](CC(C)C)NC(=O)[C@H](Cc1c[nH]cn1)NC(=O)[C@H](Cc1c[nH]cn1)NC(=O)[C@H](Cc1ccc(O)cc1)NC(=O)[C@@H](NC(=O)[C@H](CO)NC(=O)[C@H](CCC(=O)O)NC(=O)[C@H](C)N)[C@@H](C)O)C(=O)N[C@@H](Cc1ccc(O)cc1)C(=O)N[C@H](C(=O)N[C@@H](CC(C)C)C(=O)N[C@@H](CC(N)=O)C(N)=O)[C@@H](C)O
B14: Analog 89 (peptide)
peptide: AEFFKLGP[dN]GYVYLHSA-NH2
modifications: N-terminus assumed
SMILES: CC(C)C[C@H](NC(=O)[C@H](CCCCN)NC(=O)[C@H](Cc1ccccc1)NC(=O)[C@H](Cc1ccccc1)NC(=O)[C@H](CCC(=O)O)NC(=O)[C@H](C)N)C(=O)NCC(=O)N1CCC[C@H]1C(=O)N[C@H](CC(N)=O)C(=O)NCC(=O)N[C@@H](Cc1ccc(O)cc1)C(=O)N[C@H](C(=O)N[C@@H](Cc1ccc(O)cc1)C(=O)N[C@@H](CC(C)C)C(=O)N[C@@H](Cc1c[nH]cn1)C(=O)N[C@@H](CO)C(=O)N[C@@H](C)C(N)=O)C(C)C
B15: Peptide 9 (synthetic peptide of clone 9) (peptide)
peptide: AEFFKLGPNGYVYLHSA-NH2
notes: also called analogs 62-64
B16: Analog 83 (peptide)
peptide: A[dE]FFKLGPNGYVYLHSA-NH2
modifications: N-terminus assumed
SMILES: CC(C)C[C@H](NC(=O)[C@H](CCCCN)NC(=O)[C@H](Cc1ccccc1)NC(=O)[C@H](Cc1ccccc1)NC(=O)[C@@H](CCC(=O)O)NC(=O)[C@H](C)N)C(=O)NCC(=O)N1CCC[C@H]1C(=O)N[C@@H](CC(N)=O)C(=O)NCC(=O)N[C@@H](Cc1ccc(O)cc1)C(=O)N[C@H](C(=O)N[C@@H](Cc1ccc(O)cc1)C(=O)N[C@@H](CC(C)C)C(=O)N[C@@H](Cc1c[nH]cn1)C(=O)N[C@@H](CO)C(=O)N[C@@H](C)C(N)=O)C(C)C

Square brackets hold non-standard residues; d marks the D form. Ends that are not written are not given here. 1Nal = N[C@@H](Cc1cccc2ccccc12)C(=O)O; 2Nal = N[C@@H](Cc1ccc2ccccc2c1)C(=O)O; Nle = CCCC[C@H](N)C(=O)O; Abu = CC[C@H](N)C(=O)O

T1 sequence (Q03405 23-299 limits assumed): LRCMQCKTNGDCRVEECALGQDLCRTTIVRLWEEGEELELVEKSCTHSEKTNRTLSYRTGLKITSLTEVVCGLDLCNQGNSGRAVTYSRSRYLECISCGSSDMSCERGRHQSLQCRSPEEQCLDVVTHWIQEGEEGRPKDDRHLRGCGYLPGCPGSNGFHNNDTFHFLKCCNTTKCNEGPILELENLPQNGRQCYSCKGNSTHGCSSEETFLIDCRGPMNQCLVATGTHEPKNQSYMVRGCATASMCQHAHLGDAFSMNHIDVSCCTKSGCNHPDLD

One assay has as its target T1, Soluble recombinant human urokinase receptor (suPAR) (human, UniProt Q03405 23-299, limits assumed, biotinylated in the plate assays (sites not given)).
T1 construct: Only called a soluble truncated form of the urokinase receptor; also called soluble uPAR; biotinylated suPAR
Briefly: competition with phage displaying peptide 25 for soluble uPAR. The protocol:
(§1) The final anti-M13 conjugate dilution was 1:4000.
(§2) These concentrations were calculated based on the synthesis reactions.
In general, % Inhibition refers to the change of the read-out against control, counted positive when it falls. In the case of B1, the “% Inhibition at 2.5 uM” value worked out at 61% and the “% Inhibition at 5 uM” value came out at 78%.

B2: the “% Inhibition at 2.5 uM” value amounted to 45% and the “% Inhibition at 5 uM” value came out at 59%.

Regarding B3, the “% Inhibition at 2.5 uM” value was determined as 38% and the “% Inhibition at 5 uM” value worked out at 47%.

With B4, the “% Inhibition at 2.5 uM” value stood at 63% and the “% Inhibition at 5 uM” value worked out at 82%.

Consider B5, for which the “% Inhibition at 2.5 uM” value stood at 35% and the “% Inhibition at 5 uM” value was determined as 61%.

B6: the “% Inhibition at 2.5 uM” value turned out to be 22% and the “% Inhibition at 5 uM” value was determined as 75%.

With B7, the “% Inhibition at 2.5 uM” value is 31% and the “% Inhibition at 5 uM” value came to 59%.

In the case of B8, the “% Inhibition at 2.5 uM” value is 56% and the “% Inhibition at 5 uM” value amounted to 80%.

B9: the “% Inhibition at 5 uM” value was 91%.

Turning to B10, the “% Inhibition at 2.5 uM” value was found to be 70% and the “% Inhibition at 5 uM” value worked out at 94%.

For the molecule B11, the “% Inhibition at 2.5 uM” value is 32% and the “% Inhibition at 5 uM” value turned out to be 55%.

For the molecule B12, the “% Inhibition at 2.5 uM” value is 41% and the “% Inhibition at 5 uM” value was determined as 57%.

On to B13, for which the “% Inhibition at 2.5 uM” value was 73% and the “% Inhibition at 5 uM” value was 86%.

Another assay addresses T1, Soluble recombinant human urokinase …. The experiment in a line: competition with phage displaying peptide 9 for soluble uPAR. The protocol: as §1, §2
For the molecule B14, the “% Inhibition at 2.5 uM” value was 15% and the “% Inhibition at 5 uM” value worked out at 13%.

Consider B15, for which the “% Inhibition at 2.5 uM” value turned out to be 59% and the “% Inhibition at 5 uM” value is 71%.

In the case of B16, the “% Inhibition at 2.5 uM” value amounted to 44% and the “% Inhibition at 5 uM” value turned out to be 59%.

The values above are taken from patent publication US20040265797A1 (CHIRON, published 2004).
